{"source": "paper PMC10566545", "target": "RNAP containing His-RpoA (wild type) (Pseudomonas aeruginosa PAO1) (UniProt O52760+Q51561+Q9HWC9+Q9HTM1)", "sequence (O52760 whole entry, chain 1 of 4)": "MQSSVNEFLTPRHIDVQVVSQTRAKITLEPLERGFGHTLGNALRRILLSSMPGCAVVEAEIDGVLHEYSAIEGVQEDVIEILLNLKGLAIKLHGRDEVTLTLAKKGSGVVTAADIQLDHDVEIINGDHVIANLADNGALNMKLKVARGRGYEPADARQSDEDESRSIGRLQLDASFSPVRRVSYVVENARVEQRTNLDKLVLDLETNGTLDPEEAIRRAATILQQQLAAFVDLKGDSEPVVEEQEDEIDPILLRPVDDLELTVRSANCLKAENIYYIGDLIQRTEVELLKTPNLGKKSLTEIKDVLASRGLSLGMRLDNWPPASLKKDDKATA", "sequence (Q51561 whole entry, chain 2 of 4)": "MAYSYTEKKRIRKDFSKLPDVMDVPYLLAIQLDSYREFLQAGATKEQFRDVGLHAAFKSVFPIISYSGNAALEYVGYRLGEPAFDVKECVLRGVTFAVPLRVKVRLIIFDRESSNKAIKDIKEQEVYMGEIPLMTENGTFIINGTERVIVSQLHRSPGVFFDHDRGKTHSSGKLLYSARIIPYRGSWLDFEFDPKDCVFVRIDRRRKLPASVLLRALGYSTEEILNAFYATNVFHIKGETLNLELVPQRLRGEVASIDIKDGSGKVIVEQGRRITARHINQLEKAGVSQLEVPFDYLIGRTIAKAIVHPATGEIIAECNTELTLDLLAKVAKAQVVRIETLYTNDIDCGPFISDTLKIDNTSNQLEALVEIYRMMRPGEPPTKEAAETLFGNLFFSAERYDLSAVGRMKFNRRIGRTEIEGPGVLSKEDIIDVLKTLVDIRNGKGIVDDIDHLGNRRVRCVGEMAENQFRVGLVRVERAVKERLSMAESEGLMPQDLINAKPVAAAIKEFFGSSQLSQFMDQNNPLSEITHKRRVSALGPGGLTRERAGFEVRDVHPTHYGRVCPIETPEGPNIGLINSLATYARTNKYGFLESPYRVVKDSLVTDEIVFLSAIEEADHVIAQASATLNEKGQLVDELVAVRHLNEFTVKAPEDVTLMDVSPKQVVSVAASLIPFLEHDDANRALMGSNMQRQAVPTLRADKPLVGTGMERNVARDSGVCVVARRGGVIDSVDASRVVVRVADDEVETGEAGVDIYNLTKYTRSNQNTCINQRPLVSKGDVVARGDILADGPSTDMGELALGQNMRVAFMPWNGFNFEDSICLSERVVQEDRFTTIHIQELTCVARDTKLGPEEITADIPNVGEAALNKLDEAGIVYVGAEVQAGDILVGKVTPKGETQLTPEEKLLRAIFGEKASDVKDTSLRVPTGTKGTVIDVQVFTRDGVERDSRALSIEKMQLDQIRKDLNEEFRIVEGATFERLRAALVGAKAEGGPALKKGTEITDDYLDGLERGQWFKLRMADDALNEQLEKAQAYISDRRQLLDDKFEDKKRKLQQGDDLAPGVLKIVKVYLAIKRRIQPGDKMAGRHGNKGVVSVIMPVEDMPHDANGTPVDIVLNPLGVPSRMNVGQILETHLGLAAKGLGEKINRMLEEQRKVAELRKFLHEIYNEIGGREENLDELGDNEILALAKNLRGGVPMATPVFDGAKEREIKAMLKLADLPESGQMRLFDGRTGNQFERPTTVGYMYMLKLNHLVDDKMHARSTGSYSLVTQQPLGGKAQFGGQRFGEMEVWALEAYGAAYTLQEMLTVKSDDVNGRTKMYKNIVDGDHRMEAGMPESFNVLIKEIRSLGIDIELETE", "sequence (Q9HWC9 whole entry, chain 3 of 4)": "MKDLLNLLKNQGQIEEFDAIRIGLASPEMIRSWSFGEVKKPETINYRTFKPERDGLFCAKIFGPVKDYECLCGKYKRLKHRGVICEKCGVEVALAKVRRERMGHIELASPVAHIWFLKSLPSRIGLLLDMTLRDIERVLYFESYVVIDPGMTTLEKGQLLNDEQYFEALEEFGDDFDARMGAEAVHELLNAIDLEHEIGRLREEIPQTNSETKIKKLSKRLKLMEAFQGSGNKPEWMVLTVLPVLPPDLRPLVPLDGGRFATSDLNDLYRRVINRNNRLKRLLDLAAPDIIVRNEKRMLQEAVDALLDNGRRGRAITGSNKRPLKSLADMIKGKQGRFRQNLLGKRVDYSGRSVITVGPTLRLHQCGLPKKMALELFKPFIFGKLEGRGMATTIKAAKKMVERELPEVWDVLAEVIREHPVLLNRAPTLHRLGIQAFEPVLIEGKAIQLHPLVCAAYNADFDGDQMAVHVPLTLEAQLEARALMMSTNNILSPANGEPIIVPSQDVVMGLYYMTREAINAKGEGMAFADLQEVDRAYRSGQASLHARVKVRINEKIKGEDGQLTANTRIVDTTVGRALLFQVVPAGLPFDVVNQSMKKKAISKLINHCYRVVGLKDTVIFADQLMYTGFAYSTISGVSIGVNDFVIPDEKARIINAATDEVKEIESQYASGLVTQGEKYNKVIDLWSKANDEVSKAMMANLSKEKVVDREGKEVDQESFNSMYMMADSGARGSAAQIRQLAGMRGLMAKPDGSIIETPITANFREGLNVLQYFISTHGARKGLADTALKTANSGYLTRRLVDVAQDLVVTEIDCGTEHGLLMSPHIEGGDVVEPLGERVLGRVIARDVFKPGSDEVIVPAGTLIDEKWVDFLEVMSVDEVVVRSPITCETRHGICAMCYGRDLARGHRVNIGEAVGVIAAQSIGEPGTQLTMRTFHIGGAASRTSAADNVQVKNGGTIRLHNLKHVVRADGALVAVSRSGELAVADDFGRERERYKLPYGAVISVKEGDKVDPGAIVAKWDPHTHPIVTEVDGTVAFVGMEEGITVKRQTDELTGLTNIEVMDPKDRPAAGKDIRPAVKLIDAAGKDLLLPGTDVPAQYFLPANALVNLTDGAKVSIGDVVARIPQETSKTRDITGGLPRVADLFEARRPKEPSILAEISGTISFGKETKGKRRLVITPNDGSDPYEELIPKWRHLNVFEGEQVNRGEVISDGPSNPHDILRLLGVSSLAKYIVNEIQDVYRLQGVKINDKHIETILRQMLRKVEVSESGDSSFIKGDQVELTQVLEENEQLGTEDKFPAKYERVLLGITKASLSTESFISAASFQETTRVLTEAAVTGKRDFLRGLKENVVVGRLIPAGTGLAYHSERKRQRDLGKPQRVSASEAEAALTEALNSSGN", "sequence (Q9HTM1 whole entry, chain 4 of 4)": "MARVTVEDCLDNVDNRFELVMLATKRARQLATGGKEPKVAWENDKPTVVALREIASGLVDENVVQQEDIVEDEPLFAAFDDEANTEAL", "test": "EMSA", "details": "10 mM Tris-HCl, 50 mM KCl, 1 mM DTT, 1% glycerin, 10 mM MgCl2, 1 ug/ul poly(dI-dC), pH 7.5, room temperature, 30 min; 30 ng probe, 0.2 ug protein"}
{"sequence": "AGTCTCTGAGCCCTCCGGCAGCTACCCGCACGAGGCGTCGCAACGGGAAAATCGATCGCGCGCCGCGGGTGTGCGGCTTATTCCATCGAAAGCACTGTCCATAACCATCGACTGTTACAGAAAACGAAAAACCATGTATCACTGTTCGTGATAATCAAAATCTCGTCGTTCGATTAGTTCCCTGCCGGAGCAGCCCGCAGACTTCGCCAATCCCGAAAAACCGACTGGCGGAGTCAAGCATGGTTTTTT (double strand) [PmexE probe (mexEF-oprN promoter)]", "values": [{"measurement": "binding", "value": "binds"}]}
